B1: VHH Clone #1: alpaca-derived VHH single-domain antibody (monomer) binding FGFR1, amino acid sequence SEQ ID NO: 17 (protein)
VHH: QLQLVESGGGSVQAGGSLRLSCAASRSLSRFNVWTWYRQAPVKQRELVASITKSGDTNYAESVKGRFIISRDDDKNTVYLQMNNLKSEDTGIYYCAGSYYSGSYLYPSPGGFSVWGQGTQVTVSS
modifications: VHH_Clone_#1
B2: VHH Clone #2: alpaca-derived VHH single-domain antibody (monomer) binding FGFR1, amino acid sequence SEQ ID NO: 18 (protein)
VHH: QVQLVESGGGLVQAGGSLRLSCAVPGSIFRFNTMGWYRQPPGKQRELVAQMSRGGITKYGDSVKGRFTITRDNAKNTVHLQMNSLKPEDTAVYYCAGSYYSGSYYYPSPQGFSVWGQGTQVTVSP
modifications: VHH_Clone_#2

Tests used:
FGFR2-Fc = test: SPR affinity of VHH (monomer) for FGFR2-Fc; assay type: binding, human; settings: same manner as Example 5
Description: (§1) The binding activity of VHH Clone #1 or VHH Clone #2 immobilized on Series S Sensor Chip CAP (manufactured by Cytiva) with respect to FGFR1-Fc was measured using Biacore (registered trademark) T200 (manufactured by Cytiva). Measurement was performed by CAP Single-cycle Kinetics. The temperature was set to 25° C. As a running buffer, 10 mM HEPES (pH 7.4) (Cytiva) including HBS-EP+(150 mM NaCl, 0.5 mM EDTA, and 0.05% surfactant P20) was used. The measurement order for each run is as follows.
(§2) 2) Measurement of binding activity: The flow rate was set to 30 μL/mL, and VHH Clone #1 or VHH Clone #2 each diluted to 1.85 nM, 5.56 nM, 16.67 nM, or 50 nM, using a running buffer, was allowed to have an association time set to 120 seconds for binding and a dissociation time set to 600 seconds for interaction.
(§3) 3) Regeneration of sensor chip surface: The flow rate was set to 10 μL/mL, a solution in which Reaneration stock 1 and Regeneration stock 2 (manufactured by Cytiva) were mixed at the ratio of 3:1 was added thereto for 120 seconds to extract the immobilized VHH. Next, analysis was performed with a 1:1 binding model using Biacore T200 Evaluation (software version 2.0, manufactured by Cytiva), and the binding activity was calculated.
(§4) The binding activity of VHH Clone #1 to FGFR2-Fc, FGFR3-Fc, or FGFR4-Fc was measured in the same manner as in Example 5.

FGFR4-Fc = target: T1, FGFR4-Fc (Homo sapiens, UniProt P22455); test: SPR affinity of VHH (monomer) for FGFR4-Fc; assay type: binding; settings: same manner as Example 5
T1 construct: Fc
T1 sequence (P22455 22-369 limits assumed): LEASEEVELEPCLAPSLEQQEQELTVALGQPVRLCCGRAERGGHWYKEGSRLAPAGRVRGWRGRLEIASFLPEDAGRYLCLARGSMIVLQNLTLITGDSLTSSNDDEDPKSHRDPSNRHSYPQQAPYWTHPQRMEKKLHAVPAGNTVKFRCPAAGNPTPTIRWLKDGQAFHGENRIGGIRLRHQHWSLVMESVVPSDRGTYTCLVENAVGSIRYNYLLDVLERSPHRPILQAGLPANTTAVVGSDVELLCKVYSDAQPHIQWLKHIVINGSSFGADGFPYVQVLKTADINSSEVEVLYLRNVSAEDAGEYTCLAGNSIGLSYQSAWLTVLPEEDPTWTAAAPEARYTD
Description: as §1, §2, §3, §4

[1] = tested on: NIH3T3 (mouse fibroblast cell line); test: Cell growth assay with NIH3T3 (Cell Titer Glo luminescence); assay type: cell-based
Description: As a cell for measuring a cell growth activity, NIH3T3 (mouse fibroblast cell line) was obtained from ECACC through a domestic agent. The cell which was subjected to extended culture according to an ordinary method, and then freeze-preserved at −80° C. using CellBankeR1 plus (manufactured by Xenoac Co., Ltd.) was used. […]
The cell growth assay for FGF2 was performed according to the following procedure. […] The plate was further left to stand for 8 minutes, and then the luminescence in each well was measured with a Synergy HTX plate reader (manufactured by BioTek) with a sensitivity set (Gain) of 200 and a measurement time of 1 s/well.
The measurement was performed at three points at each concentration of the test substance, for the measurement at a single concentration, 100 ng/ml of FGF2 was used as a positive control and a condition of no addition was used as a negative control, and the VHH monomer was prepared with uniform 100-fold dilution, and measured. […] EC50 measurement data were obtained according to an ordinary method using a control software attached to a plate reader. The EC50 value was calculated by applying the 4-parameter fit.
Each stock of the VHH monomer (Clone #1: 2.65 mg/mL; Clone #2: 0.82 mg/mL-PBS) was diluted 100-fold to check the presence or absence of the cell growth activity. […] The vertical axis in FIG. 15 indicates a relative luminescence amount. […]

Molecule | ka (FGFR2-Fc) [M⁻¹ s⁻¹] | kd (FGFR2-Fc) [s⁻¹] | ka (FGFR4-Fc) [M⁻¹ s⁻¹] | kd (FGFR4-Fc) [s⁻¹] | cell growth activity (relative luminescence amount, RLU) ([1]; NIH3T3, serum-free, 2 days, 4-fold dilution series, compared with FGF2) | cell growth activity of VHH monomer (relative luminescence amount) ([1]; NIH3T3, stock diluted 100-fold (Clone #2: 8.20 μg/mL))
B1 | 484000 | 0.776 | 2.37e+06 | 0.0527 |  | 
B2 |  |  |  |  | relative luminescence amount was low even at a high concentration | significantly exhibited a cell growth activity

Reference: US20240279618A1, “RECEPTOR TYROSINE KINASE AGONIST, COMPOSITION FOR CELL CULTURE MEDIUM, AND […] MAINTENANCE COMPOSITION” (SEKISUI CHEMICAL CO., LTD., priority 2021, published 2024)
